Changes are numbered by the printed parent chain.
T1: recombinant human SOST (rhSOST) (human, UniProt Q9BQB4 24-213)
T1 construct: Treated as one molecule; also called recombinant human SOST protein; human sclerostin
T1 sequence: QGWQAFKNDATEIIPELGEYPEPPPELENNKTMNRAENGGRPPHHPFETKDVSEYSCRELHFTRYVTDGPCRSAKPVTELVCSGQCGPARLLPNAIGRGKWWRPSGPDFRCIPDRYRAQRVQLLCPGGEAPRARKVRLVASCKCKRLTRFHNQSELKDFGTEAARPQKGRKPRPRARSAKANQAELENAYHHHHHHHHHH

B1: DM21 (antibody, V domains shown)
VH: EVQLLESGGGLVQPGGSLRLSCAASGHTFSDYWMQWVRQAPGKGLEWIGAIYPGDGDTRYNQKFKDRFTISRDNSKNTLYLQMNSLRAEDTAVYYCARSMDYWGQGTLVTVSS
VL: DIVMTQSPDSLAVSLGERATINCRASKTVDSYGNSFMHWFQQKPGQPPKLLIYHSSNLESGVPDRFSGSGSGTDFTLTISSLQAEDVAVYYCLQTIEDPYTFGQGTKLEIK
notes: also called mH1/mL2
B2: DM4 (antibody, human IgG2, kappa, V domains shown)
VH: B1 VH with I48V
VL: DIVMTQSPDSLAVSLGERATINCRASKTVDSYGNSFMHWFQQKPGQPPKLLIHHSSNLESGVPDRFSGSGSGTDFTLTISSLQAEDVAVYYCLQTIEFPYTFGQGTKLEIKR
notes: mAb names lost in this copy; also called mH10/mL13
B3: DM28 (antibody, V domains shown)
VH: B1 VH with S30T, N61A, K63S, F64V, D66G
VL: B1 VL with Y53H
notes: also called mH8/wt
B4: DM31 (antibody, V domains shown)
VH: B1 VH with I48V
VL: B1 VL with F40Y, P99S
notes: also called mH10/mL19
B5: DM30 (antibody, V domains shown)
VH: B1 VH with I48V
VL: B1 VL with F40Y
notes: also called mH10/mL3
B6: DM34 (antibody, V domains shown)
VH: B1 VH with H27F, I48V
VL: B1 VL with F40Y, P99S
notes: also called mH11/mL19
B7: DM22 (antibody, V domains shown)
VH: B1 VH with H27F, S30T
VL: B1 VL with Y53H
notes: also called mH2/wt
B8: DM23 (antibody, V domains shown)
VH: B1 VH with H27F
VL: B1 VL with Y53H
notes: also called mH3/wt
B9: DM33 (antibody, V domains shown)
VH: B1 VH with H27F, I48V
VL: B1 VL with F40Y, D98H
notes: also called mH11/mL15
B10: DM19 (antibody, V domains shown)
VH: B1 VH with S30T
VL: B1 VL with Y53H, D98F, P99H
notes: also called wt/mL10
B11: DM18 (antibody, V domains shown)
VH: B1 VH with S30T
VL: B1 VL with Y53H, E97D, D98E
notes: also called wt/mL8
B12: DM26 (antibody, V domains shown)
VH: B1 VH with S30T, G49S
VL: B1 VL with Y53H
notes: also called mH5/wt
B13: DM29 (antibody, V domains shown)
VH: B1 VH with I48V
VL: B1 VL
notes: also called mH10/mL2
B14: DM24 (antibody, V domains shown)
VH: B1 VH with H27F
VL: B1 VL
notes: also called mH3/mL2
B15: DM25 (antibody, V domains shown)
VH: B1 VH with S30T, I48V
VL: B1 VL with Y53H
notes: also called mH4/wt
B16: DM20 (antibody, V domains shown)
VH: B1 VH
VL: B1 VL with Y53H
notes: also called mH1/wt
B17: DM32 (antibody, V domains shown)
VH: B1 VH with H27F, I48V
VL: B1 VL
notes: also called mH11/mL2
B18: DP99 (antibody, V domains shown)
VH: EVMLAESGGGLVQPGGSLQLSCAASGFTFSIYAMSWVRQTPEKRLEWVATISGGDTYTYYADSVKGRFTISRDNAKNTLYLHMTGLRSEDTALYYCARHGYDDFDYWGLGTTLTVSS
VL: DVVLTQIPLTLSVTIGQPATISCKSSQSLLDNDGETYLNWLLVRPGQSPKRLIYQVSKLDSGFPERFTGGGSGTDFTLKISRVEAEDLGIYYCWQGTHFPHTFGGGTKLEIK
notes: also called pH99/pL99
B19: DP1 (antibody, human IgG2, kappa, V domains shown)
VH: EVQLVESGGGLVQPGGSLRLSCAASGFTFSIYAMSWVRQAPGKGLEWVALISGGDTYTYYADSVKGRFTISRDNAKNSLYLQMNSLRAEDTAVYYCARHGYDDFDYWGQGTLVTVSS
VL: DVVMTQSPLSLPVTLGQPASISCRSSQSLLDNDGETYLNWFQQRPGQSPRRLIYQVSKLDSGVPDRFSGSGSGTDFTLKISRVEAEDVGVYYCWQGTHFPHTFGGGTKVEIKR
notes: also called pH1/pL1

Each binder was assayed against T1, recombinant human SOST (rhSOST) (assay: SPR Biacore T200, IgG captured via anti-human Fc, rhSOST analyte, 37 C).

Kd [nM]	koff [s⁻¹]	kon [M⁻¹ s⁻¹]	Binder
0.008	7.41e-05	8.86e+06	B1
0.13	0.000508	3.91e+06	B2
0.099	0.00035	3.52e+06	B3
0.816	0.00171	2.1e+06	B4
0.045	0.000239	5.34e+06	B5
1.65	0.00356	2.16e+06	B6
0.015	0.000152	1.04e+07	B7
0.01	0.000134	1.39e+07	B8
0.093	0.000563	6.03e+06	B9
0.096	0.000388	4.06e+06	B10
0.179	0.00104	5.81e+06	B11
0.053	0.000222	4.2e+06	B12
0.014	0.000101	7.41e+06	B13
0.035	0.000239	6.9e+06	B14
0.017	0.000101	5.81e+06	B15
0.015	0.00012	7.83e+06	B16
0.054	0.000419	7.75e+06	B17
0.103	0.003	2.9e+07	B18
3.7	0.00667	1.8e+06	B19

What follows are binders tested against T1, recombinant human SOST (rhSOST) (assay: cell-based or functional assay).

EC50, neutralization of rhSOST-mediated inhibition of Wnt-10B luciferase reporter activity in U-2OS-TF-Wnt10B cells	EC50, restoring WNT10b-stimulated luciferase activity suppressed by 1 ug/ml rhSOST in U2OS TOPFlash cells [nM]	Binder
5.53 ug/ml (printed 'Mg/ml')		B1
2.07 ug/ml (printed 'Mg/ml')		B2
5.95 ug/ml (printed 'Mg/ml')	37	B18
22 ug/ml (printed 'Mg/ml')		B19
